Experimental findings from US20120121581A1 (XOMA TECHNOLOGY, published 2012) are described below.

Common to all, as to test: ELISA, toxin domain coated on plate
A general note: ELISA stands for enzyme-linked immunosorbent assay.

Assay [1] concerns the target BoNT/A heavy-chain N-terminus (HCN) domain (UniProt P0DPI0 871-1092).
The target in assay [2] is BoNT/A light-chain heavy-chain N-terminus (LCHN) domain (UniProt P0DPI0 1-870).
Assay [3] concerns the target BoNT/A heavy-chain C-terminus (HCC) domain (UniProt P0DPI0 1093-1296).

BoNT/A heavy-chain C-terminus (HCC) domain, sequence (P0DPI0 1093-1296 limits assumed): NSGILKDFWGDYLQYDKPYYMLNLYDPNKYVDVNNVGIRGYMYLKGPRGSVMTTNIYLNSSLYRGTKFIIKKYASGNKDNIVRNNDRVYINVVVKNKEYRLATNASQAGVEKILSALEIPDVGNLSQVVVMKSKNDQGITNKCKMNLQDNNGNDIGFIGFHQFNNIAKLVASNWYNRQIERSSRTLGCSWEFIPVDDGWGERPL
BoNT/A heavy-chain N-terminus (HCN) domain, sequence (P0DPI0 871-1092 limits assumed): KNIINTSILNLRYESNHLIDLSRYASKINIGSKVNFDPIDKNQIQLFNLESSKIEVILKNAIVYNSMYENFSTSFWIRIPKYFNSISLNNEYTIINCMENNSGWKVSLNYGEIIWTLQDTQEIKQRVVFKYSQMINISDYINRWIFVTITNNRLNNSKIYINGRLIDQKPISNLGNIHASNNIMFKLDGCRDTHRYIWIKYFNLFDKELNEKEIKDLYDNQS
BoNT/A light-chain heavy-chain N-terminus (LCHN) domain, sequence (P0DPI0 1-870 limits assumed): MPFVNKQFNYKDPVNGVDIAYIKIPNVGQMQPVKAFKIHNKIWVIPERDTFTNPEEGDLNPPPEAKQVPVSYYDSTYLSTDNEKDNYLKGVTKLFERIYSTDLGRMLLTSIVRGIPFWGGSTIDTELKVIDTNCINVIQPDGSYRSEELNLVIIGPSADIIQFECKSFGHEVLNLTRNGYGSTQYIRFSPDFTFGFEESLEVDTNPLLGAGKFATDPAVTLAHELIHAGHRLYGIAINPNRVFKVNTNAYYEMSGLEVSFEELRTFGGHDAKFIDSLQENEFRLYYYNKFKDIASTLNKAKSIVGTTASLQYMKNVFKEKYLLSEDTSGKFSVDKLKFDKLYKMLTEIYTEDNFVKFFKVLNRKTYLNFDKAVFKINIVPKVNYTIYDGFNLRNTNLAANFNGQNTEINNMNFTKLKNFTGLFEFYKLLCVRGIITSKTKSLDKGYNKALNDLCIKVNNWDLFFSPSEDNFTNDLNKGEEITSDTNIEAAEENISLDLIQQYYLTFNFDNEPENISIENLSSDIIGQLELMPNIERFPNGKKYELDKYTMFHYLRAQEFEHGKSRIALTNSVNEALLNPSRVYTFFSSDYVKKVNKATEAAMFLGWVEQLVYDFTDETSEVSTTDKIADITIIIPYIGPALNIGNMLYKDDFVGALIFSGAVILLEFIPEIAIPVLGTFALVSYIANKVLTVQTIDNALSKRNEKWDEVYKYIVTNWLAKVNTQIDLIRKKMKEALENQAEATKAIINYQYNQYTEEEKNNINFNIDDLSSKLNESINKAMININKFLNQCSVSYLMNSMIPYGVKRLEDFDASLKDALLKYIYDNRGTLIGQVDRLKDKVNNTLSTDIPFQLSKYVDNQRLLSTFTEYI

B1: ABT02 (antibody, V domains shown)
VH: QVQLVQSGGGVVHPGRSLKLSCAGSGFTFSDYDMHWVRQAPGKGLEWVAVMWFDGTEKYSAESVKGRFTISRDNSKNTLFLQMNSLRADDTAVYYCAREPDWLLWGDRGALDVWGQGTTVTVSS
VL: DIVMTQSPSTLSASVGDRVTITCWASQSISSRLAWYQQKPGKAPKLLMYEATSLGSGVPSRFSGSGSGTEFTLTISSLQPDDFAAYYCQHYDTYPYTFGQGTKLEIK
In the case of B1, the binding result in assay [1] and in assay [2] was “no binding” throughout.

B2: ABT03 (antibody, V domains shown)
VH: QVQLQQSGGGLVQPGGSLRLSCAASGFTFSNYAMTWVRQAPGKGLEWVSSISVGGSDTYYADSVKGRFTVSRDNSKNTLLLQMNSLRAEDTAVYYCAKVRTKYCSSLSCFAGFDSWGQGTRVTVSS
VL: DVVMTQSPSSLSASVGDRVTITCRASQSISSYLHWYQQKPGKAPTLLISDASSSQSGVPSRFSGSRFGTDFTLTISSLQPEDFATYYCQQSYSTRALTFGGGTKVEIK
With B2, the binding result in assay [3] and in assay [1] was “no binding” in each case.

B3: ABT01 (antibody, V domains shown)
VH: QVQLQQSGGGLVQPGGSLRLSCAASGFTFKYDYMYWIRQAPGKGLEWVATISDGGSYTYYSDSVEGRFTTSRDNSKNTLYLQMNSLRAEDTAIYYCSRYRYDDAMDYWGQGTLVTVSS
VL: EIVLTQSPATLSLSPGERATISCRASESVDSYGHSFMQWYQQKPGQAPRLLIYRASNLEPGIPARFSGSGSGTDFTLTISSLEPEDFAVYYCQQGNEVPFTFGQGTKVEIK
For the molecule B3, the binding result in assay [3] and in assay [2] was “no binding” in each case.
